Reference: patent US20230257435A1, “Wound Healing Composition and Uses Thereof” (AGENCY FOR SCIENCE, TECHNOLOGY AND RESEARCH, priority 2020, published 2023)

How the values were obtained:
mouse skin explants = test: Mouse skin explant assay (keratinocyte outgrowth); assay type: cell-based
Protocol: Three days old ICR strain mouse pups were sacrificed and the hind skin on either side of the midline in the shoulder region was washed in 70% ethanol and excised using scalpel. The excised skin was washed in 70% ethanol and placed (dermis side down) on the pre-made gel substrates of defined stiffness, either in the absence or presence of 20 μg/ml sAgrin. The explants were allowed to adhere for 2 h before adding the keratinocyte culture medium (DMEM) containing 300 μM Ca^2+ as described previously^31. The keratinocyte outgrowth and the skin tissues regularly imaged under an Axiovert-200 inverted microscope and were subsequently fixed in 4% paraformaldehyde and immunostained for Keratin 17 antibody.
Tissue culture plates were coated with Col-T-gel (Fischer Scientific) of stiffness ranging from 0.8 KPa (soft) to 30 KPa (stiff) as per manufacturer recommendations and allowed to solidify for 40 min at 37° C. inside tissue culture incubators. Some experiments were performed with cells seeded on the poly-hydrogel plates of defined stiffness: 0.2 kPa and 16 kPa soft and hard polyhydrogels, respectively (CytoSoft, Advanced Biomatrix, Inc.,). The determination of stiffness of silicone substrates were done by the manufacturer as per previously published protocols. For certain experiments, indicated amounts of sAgrin was incorporated into the 0.8 KPa collagen gels before gelation process. Upon gelation, trypsinized cells or excised mouse skin explants were plated onto the gels of different stiffness either alone or containing sAgrin. The cells/tissues were incubated under standard culture condition with 500 μl recommended culture medium for the indicated days. The crossbow shaped micropatterns with fibronectin coated islands were generated by microlithography on a 19.5×19.5 mm coverslide from Cytoo, Inc., France. The micropatterns had surface areas of 800μ^2 or 1600μ^2, respectively. Fifty thousand cells after initial siRNA treatment was placed on the micropatterns for 4-6 h before processing them for immunofluorescence. […]

human skin explants = test: Human skin explant (EPIDERM-FT) punch wound healing; assay type: cell-based; conditions: explants treated with Agrin siRNA #1; 20 μg sAgrin in ointment on days 2, 4, 6
From the text: Human epidermal keratinocyte cell line HaCaT was maintained in Dulbecco's modified Eagle's Medium (DMEM) (Gibco) containing 10% fetal bovine serum (FBS) with Penicillin and Streptomycin (Gibco Cat #15140148) antibiotics. The human foreskin normal fibroblasts (BJ) obtained from ATCC (ATCC® CRL-2522™) were passaged in DMEM (Gibco) with antibiotics. Normal primary adult epidermal keratinocytes (HEK) purchased from CELL Applications, Inc., (Cat #C-12003) were maintained in manufacturer provided keratinocyte growth medium as recommended. Primary keratinocytes from C57BL mouse strain were purchased from CellBiologics (Cat #C57-6066K) and maintained as per manufacturer recommended Epithelial cell growth medium (Cat #M6621, CellBiologics). The mouse primary dermal fibroblasts were isolated from C57BL mouse strain (Cat #m-GFP-6067), and cultured in complete fibroblast medium (CellBiologics, Cat #M2267). […]
Human skin equivalents and mice skin tissues were harvested, embedded, and subjected to routine histology using Hematoxylin and Eosin. […] Quantification of collagen as a marker for ECM deposition was done by picrosirius red staining of paraffin embedded mouse skin tissues, as per previously published protocol.

B1: sAgrin: C-terminus recombinant Agrin fragment containing 8 amino acid 'Z8' insert and LG3 domain (SEQ ID NO: 7), His-tagged, expressed in E. coli (protein)
chain: DTLAFDGRTFVEYLNAVTESELANEIPVEKALQSNHFELSLRTEATQGLVLWSGKATERADYVALAIVDGHLQLSYNLGSQPVVLRSTVPVNTNRWLRVVAHREQREGSLQVGNEAPVTGSSPLGATQLDTDGALWLGGLPELPVGPALPKAYGTGFVGCLRDVVVGRHPLHLLEDAVTKPELRPCPTP
modifications: His tag
keratinocyte outgrowth on soft substrates (mouse skin explants; soft ECM, 20 μg/ml sAgrin, day 5): significantly enhanced keratinocyte outgrowth
keratinocyte outgrowth of Agrin depleted explants on stiff substrates (mouse skin explants; stiff ECM with 20 μg/ml sAgrin): exhibited higher keratinocyte outgrowth
wound healing and migration of keratinocytes (rescue) (human skin explants): significantly rescued the wound healing and the migration of keratinocytes
